Measurements reported in US20160030526A1.

Experiments:
[1] = target: human CD25 (human IL-2 receptor) on human CD25+ T-cell lymphoma cells HUT 102/6TG (human) (UniProt P01589); experiment: cell-based or functional assay
[2] = target: human CD25 (human IL-2 receptor) on human CD25+ T-cell lymphoma cells HUT 102/6TG (human) (UniProt P01589)
[3] = target: human CD25 (human IL-2 receptor) on human CD25+ T-cell lymphoma cells HUT 102/6TG (human) (UniProt P01589); experiment: flow cytometry on HUT 102/6TG cells

Chain of human CD25 (human IL-2 receptor) on human CD25+ T-cell lymphoma cells HUT 102/6TG (human) (P01589 22-272): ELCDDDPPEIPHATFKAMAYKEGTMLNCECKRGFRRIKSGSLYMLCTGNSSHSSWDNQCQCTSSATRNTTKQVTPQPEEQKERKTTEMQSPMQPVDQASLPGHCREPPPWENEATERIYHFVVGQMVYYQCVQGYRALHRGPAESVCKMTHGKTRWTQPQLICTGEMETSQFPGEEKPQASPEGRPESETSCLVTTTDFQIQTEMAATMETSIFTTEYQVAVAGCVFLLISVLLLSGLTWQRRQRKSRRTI

| Substance | IC50 of protein synthesis inhibition (3H-leucine) in HUT 102/6TG cells [1] | Kd [2] | affinity against the monovalent isoform (DT390-hIL-2) [3] |
| --- | --- | --- | --- |
| bivalent human IL-2 fusion toxin (DT390-bi-hIL-2-6xHis) | 0.0002 nM | – | – |
| bivalent human IL-2 fusion toxin (DT390-bi-hIL-2-6xHis) (other; other documents disagree on this pair) | – | 0.21 nM | 2 logs |
| monovalent human IL-2 fusion toxin (DT390-hIL-2-6xHis) | 0.02 nM | – | – |
| monovalent human IL-2 fusion toxin (DT390-hIL-2-6xHis) (other; other documents disagree on this pair) | – | 15.9 nM | – |
